We go through 2 substances from publication PMC9445180.

Experiment [1] has as its target HTRA2^PD/PDZ-ΔLoopA (human) (UniProt O43464). The experiment in a line: SEC; HTRA proteins and their LoopA deletion mutants alone; Superdex 200 Increase 3.2/300; 200 mM NaCl, 20 mM HEPES pH 7.5, 0.25% CHAPS; size against gel filtration standard.
Experiment [2] has as its target HTRA3^PD/PDZ-ΔLoopA (human) (UniProt P83110). Described as above.

With “HTRA2^PD/PDZ-ΔLoopA (from UniProt O43464 134-458) (domain or fragment)”, the stoichiometry N (in general, the number of molecules, sites or subunits per partner or assembly) in experiment [1] stood at 3.

Take “HTRA3^PD/PDZ-ΔLoopA (from UniProt P83110 130-453) (domain or fragment)”: the stoichiometry N in experiment [2] is 3.
